# Test results published in patent publication US20230392126A1, “TISSUE ORGANOIDS” (priority 2016, published 2023).
# B1: hBChE: modified human butyrylcholinesterase (E30-6, SEQ ID NO: 41), cocaine hydrolase, expressed from engineered epidermal cells / skin grafts (protein)
# chain: MHSKVTIICIRFLFWFLLLCMLIGKSHTEDDIIIATKNGKVRGMNLTVFGGTVTAFLGIPYAQPPLGRLRFKKPQSLTKWSDIWNATKYANSCCQNIDQSFPGFHGSEMWNPNTDLSEDCLYLNVWIPAPKPKNATVLIWIYGGGFQTGTSSLHVYDGKFLARVERVIVVSMNYRVGALGFLALPGNPEAPGNMGLFDQQLALQWVQKNIAAFGGNPKSVTLFGESSGAASVSLHLLSPGSHSLFTRAILQSGSANAPWAVTSLYEARNRTLNLAKLTGCSRENETEIIKCLRNKDPQEILLNEAFVVPYGTALGVNFGPTVDGDFLTDMPDILLELGQFKKTQILVGVNKDEGTWFLVGGAPGFSKDNNSIITRKEFQEGLKIFFPGVSEFGKESILFHYTDWVDDQRPENYREALGDVVGDYNFICPALEFTKKFSEWGNNAFFYYFEHRSSKLPWPEWMGVMHGYEIEFVFGLPLERRDNYTKAEEILSRSIVKRWANFAKYGNPNETQNNSTSWPVFKSTEQKYLTLNTESTRIMTKLRAQQCRFWTSFFPKVLEMTGNIDEAEWEWKAGFHRWNNYMMDWKNQFNDYTSKKESCVGL
# modifications: Human mutant BChE
# Assays:
# [1] = system: human epidermal keratinocytes; assay: Cell proliferation and differentiation of engineered human epidermal cells in vitro; format: cell-based
# Experimental: Primary human neonatal epidermal keratinocytes were obtained from Thermo Fischer® (C0015C), and cultured with Epilife® medium (Thermo Fischer, M-EPICF-500) with manufacturer's recommended procedures. Calcium shift was performed to induce differentiation of primary keratinocytes by increasing the calcium concentration in culture media to 1.5 mM.
# Propidium iodide (PI) staining followed by flow cytometry were used to determine the effect of cell cycle profiles. Mouse and human epidermal cells were cultured in two 6 cm cell culture dish for 24 hours, respectively. Cells were trypsinized, and 1×10^5 cells from each dish were collected, followed by one PBS wash. […] After staining, the cells were analyzed immediately using flow cytometer BD FACSCanto™ II (BD Biosciences, San Jose, CA) with an excitation wavelength at 488 nm and emission at 585 nm. DNA content and histograms of cell cycle distribution were analyzed using FlowJo™ software, version 10 (FLOWJO LLC, OR).
# Western blotting was performed as described previously (Blanpain et al.). […] Visualization and quantification was carried out with the LI-COR Odyssey® scanner and software (LI-COR Biosciences).
# Propidium iodide (PI) staining followed by flow cytometry were used to determine the effect of cell cycle profiles. […] DNA content and histograms of cell cycle distribution were analyzed using FlowJo™ software, version 10 (FLOWJO LLC, OR). […]
# [2] = Acquisition of ethanol CPP in GhBChE and GWT mice; format: in vivo, mouse; details: 2 g/kg ethanol i.p., specificity control
# Experimental: CPP apparatus: The CPP apparatus (FIG. 17; Med Associates, E. Fairfield, VT, USA) consisted of two larger chambers (16.8×12.7×12.7 cm), which were separated by a smaller chamber (7.2×12.7×12.7 cm) as previously described (Yan et al., 2013). […] Time spent in each chamber was measure via photobeam breaks and recorded. CPP was determined on testing days via time spent in the drug-paired side minus time spent in the saline-paired side.
# Acquisition of CPP: A biased CPP procedure was used similar to that from a previous study (Yan et al., 2013). Acquisition of CPP consisted of three sequential procedures—pretest, conditioning, and test. […] On Day 6 (test day) mice were allowed to explore the entire chambers for 20 min and time spent in each area was recorded. […]
# Next, protection against development of cocaine-seeking was assessed using the conditioned place preference (CPP) paradigm, which is thought to model reward learning and seeking because experimental animals approach and remain in contact with cues that have been paired with the effects of the reward. hBChE-expressing cells were grafted to cocaine-naïve mice with GWT animals as controls. […] As an additional control, ethanol CPP was measured after 4 days of conditioning in GhBChE and GWT mice.
molecule,measurement,setting,value
B1,effect of expression on cell proliferation / differentiation in vitro,[1],did not significantly change cell proliferation
same,ethanol CPP after 4 days of conditioning,[2],spent significantly more time in ethanol-paired environments
